B1: purified recombinant human GAPDH protein (enzyme)
chain: not shown
notes: also called glyceraldehyde-3-phosphate dehydrogenase

What was measured:
[1] = molecular target: T1, recombinant full-length DENV2 NS3 protein (dengue virus 2, New Guinea C (NGC) …, UniProt P14340 1476-2093); assay: SPR; details: both partners purified
T1 construct: also called full-length NS3

[2] = molecular target: B1; assay: SPR; unpublished data; no conditions told; the estimate is given together with the ELISA result of ref. 39

T1 sequence (P14340 1476-2093): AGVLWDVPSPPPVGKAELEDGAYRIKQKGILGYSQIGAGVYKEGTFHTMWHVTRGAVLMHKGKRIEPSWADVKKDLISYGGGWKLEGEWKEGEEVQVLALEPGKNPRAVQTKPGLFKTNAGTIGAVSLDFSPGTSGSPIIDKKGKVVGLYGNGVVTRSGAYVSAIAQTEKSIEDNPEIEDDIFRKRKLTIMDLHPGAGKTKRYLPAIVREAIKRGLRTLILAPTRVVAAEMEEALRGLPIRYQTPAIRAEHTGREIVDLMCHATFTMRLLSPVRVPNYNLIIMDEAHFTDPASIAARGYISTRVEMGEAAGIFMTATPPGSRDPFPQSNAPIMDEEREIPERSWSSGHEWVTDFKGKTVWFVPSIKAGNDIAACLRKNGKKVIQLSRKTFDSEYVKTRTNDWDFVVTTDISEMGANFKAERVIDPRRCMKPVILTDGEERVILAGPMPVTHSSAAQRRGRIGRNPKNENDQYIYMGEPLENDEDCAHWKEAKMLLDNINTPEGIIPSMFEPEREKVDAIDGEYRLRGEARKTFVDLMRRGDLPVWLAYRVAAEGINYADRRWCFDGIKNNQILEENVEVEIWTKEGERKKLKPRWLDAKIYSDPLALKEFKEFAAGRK

## B1
[1]
  Kd: 0.31 µM

B2: DENV2 NS1 protein (natural protein)
chain: DSGCVVSWKNKELKCGSGIFITDNVHTWTEQYKFQPESPSKLASAIQKAHEEGICGIRSVTRLENLMWKQITPELNHILSENEVKLTIMTGDIKGIMQAGKRSLQPQPTELKYSWKTWGKAKMLSTESHNQTFLIDGPETAECPNTNRAWNSLEVEDYGFGVFTTNIWLKLREKQDVFCDSKLMSAAIKDNRAVHADMGYWIESALNDTWKIEKASFIEVKSCHWPKSHTLWSNGVLESEMIIPKNFAGPVSQHNYRPGYHTQTAGPWHLGKLEMDFDFCEGTTVVVTEDCGNRGPSLRTTTASGKLITEWCCRSCTLPPLRYRGEDGCWYGMEIRPLKEKEENLVNSLVTA
[2]
  Kd: 2 to 3 µM

— publication PMC6389977, “Dengue virus nonstructural 3 protein interacts directly with human glyceraldehyde-3-phosphate dehydrogenase (GAPDH) and reduces its glycolytic activity” (Scientific Reports, 2019)
